Measured values as given in patent US20170166631A1 (NEURIMMUNE, published 2017).

B1: NI-302.6N9 (antibody, human IgG1, V domains shown)
VH: EVQLVESGGDLVQPGGSLRLSCVVSGFTFSSYAMTWVRQAPGKGLAWVSTISATGGSTFYTDSVRGRFTISRDNSKNTLYLQMNSLRTDDTAIYYCVKDLFGVDTSYYGMDVWGQGTTVTVSS
VL: EIVLTQSPGTLSLSPGERATLSCRPSQSVSGRYVAWYQQKPGQAPRLLFYAASNRAIGIPDRFSGSGSGTDFTLTISRLEPEDFAVYYCQHYGASSYTFGPGTKVDIK
notes: Expressed as complete human IgG1
B2: NI-302.63F3 (antibody, V domains shown)
VH: QVQLVQSGSAFKKPGTSVKVSCKASGYTFETRSMNWVRQAPGQGLEYMGWINTNTGNRTYVQAFRGRFVFSLDTSVSTAYLQISNLKTEDTAVYYCARGAGGGYWFDSWGQGTLVTVSS
VL: DIQMTQSPDSLAVSLGERATINCKSNQSLFYSSNNNNYLAWYQHKSGQPPKLLVYWGSTRESGVPDRFSGSGSGTDFTLTISSLQAEDVAIYYCHQYYHNPYTFGQGTKLEIK
notes: also called anti-P-rich domain antibody; anti-proline-rich domain antibody
B3: NI-302.15E8 (antibody, V domains shown)
VH: EVQLVESGGGLIQPGGSLRLSCAVSGFTVSSYSMNWVRQAPGKGLEWVSYTSSSRSNTKKYADSVKGRFTISRDNARNSLYLQMNSLRDEDTAVYYCARAGDFGELLTGEGYYGMDVWGQGTTVTVSS
VL: SYELTQPPSVSVSPGQTATITCSGDELGDKYVGWYQQKPGQSPLLVIYQDAKRPSGIPERFSGSNSGNTATLTISGTQAMDEADYYCQAWDSGTMVFGGGTRLTVL
notes: also called anti-N-terminal domain antibody
B4: NI-302.74C11 (antibody, V domains shown)
VH: EVQLVQSGTEVQKPGASVKVSCKASGYSFTGYFLHWVRQAPGQGLEWMGWINPNSGDTNYAEKFRGRIIMTRDTSVSTAHMELSSLRFDDTALYYCTREAPDPGAETDVWGQGTTVTVSS
VL: QSVLTQPPSVSVSPGQTARITCSGDAVPKQYIYWYQQKPGQAPILVIYKDTQRPSGIPERFSGSNSGTTVTLTITGVQADDEGDYYCQSADSSATWVFGGGTKLTVL
B5: NI-302.71F6 (antibody, V domains shown)
VH: QVQLQQWGAGLLKPSETLSLTCAVYGGSLSGYYWSWIRQPPGKGLEWIGEVNHSGGTNLNSSLKSRVIISVDKSKKQFSLKLSSVTAADTAMYFCARGYSYDPKYYFDSWSQGTLVTVSS
VL: QSALTQPASVSGSPGQAITISCTGTSSDIGSYDFVSWYQQDPGKAPKVIIYGVNKRPSGVSNRFSGSKSGNTASLTISGLQADDEADYYCCSYAGSTTWVFGGGTKLTVL
B6: NI-302.64E5 (antibody, V domains shown)
VH: EVQLVETGGGLVKPGGSLRLSCAASGFTFDQAWMSWVRQVPGKGLEWVGRIKTKTEGEATDYAAPVRGRFTISRDDSEDTVFLQMNSLKTEDTALYYCTSTGVLAAAVDVYWGQGTLVTVSS
VL: DIQLTQSPDSLAVSLGERATMTCKSSQSLFYSYNNENYLAWYQQRPGQPPKLLIYWASTRESGVPDRFSGSGSGTDFTLTISSLQAEDVAVYYCQQYYSTPQTFGQGTKVDIK
B7: NI-302.11A4 (antibody, V domains shown)
VH: EVQLVESGGGLIQPGGSLRLSCAASGFPVSSSYMSWVRQAPGEGLEWVSVLYRDGDTYYADSVQGRFTISRDNSQNTFYLQMNSLKAEDTAVYYCAGDRRSSHYYYGMDVWGQGTTVTVSS
VL: EIVMTQSPGTLSLSPGERATLSCRASQSVSSSYFAWYQQKPGQAPRLLIYGTSRRATAIPDRFSGSGSGTDFTLTISRLEPEDFAVYYCQQYGSSWTFGPGTKVEIK
B8: NI-302.4A6 (antibody, V domains shown)
VH: EVQLVESGGGLVQPGGSLRLSCAASGFTFSAYAMSWVRQAPGKGLEWVSTISGSGGSTYYADSVKGRFSISRDNSKNTLYLQMNSLRAEDTAVYFCAKVTTELYGANSYYYYMDVWGKGTTVTVSS
VL: EIVLTQSPGTLSLSPGERATLSCRASQSVVSRYLAWYQQKPGQAPRLLIYGASSRATGIPDRFSGSGSGTDFTLTISRLEPEDFAMYYCQLYGNSQTFGQGTKVEIK
B9: NI-302.55D8 (antibody, V domains shown)
VH: QVQLVQSGSEVKKPGASVKVSCKASGYTFTDYYIHWVRQAPGQGLEWMGRINPNNGGTNYAQNFQGWVTMTRDTSISTAYMELSRLRSDDTAVYYCARVGGELLREGGYHYYMDVWGKGTTVTVSS
VL: QSVLTQPPSVSGAPGQRVTISCTGNSSNIGAGYDVHWYQQLPGTAPKLLIFDNTNRPSGVPDRFSGSKSGTSASLAITGLQAEDEANYHCQSYDNSLSGSWVFGGGTKLTVL
B10: NI-302.7D8 (antibody, V domains shown)
VH: QVQLVQSGSELKKPGASVKVSCKASGYNFNNYAINWLRQAPGQGLEWMGWINTITGHPTYAQGFKGRFVFSLDTSVSTAYLQISSLKPEDTAVYYCARTYSNYGEFDYWGQGTLVTVSS
VL: QSALTQPASVSGSRGQSITISCTGTSSDVGSYNLVSWYQQYPGKAPKLIIHEGSERPSGVSNRFSGSKSGNTASLTISGLQAEDEADYYCCSYAGTTTFVLFGGGTKLTVL
notes: also called anti-poly Q/P domain antibody
B11: NI-302.35C1 (antibody, V domains shown)
VH: EVQLVESGGNLVQPGGSLRLSCTASGFTFSITALSWVRQAPEKGPQWVSAITGNAYGTYYADSVKGRFTISRDNAKNTLYLQMNGLRAEDTAIYYCVKGIASDSSGYSAFWGPGTLVTVSS
VL: EIVLTQSPATLSLSPGERATLSCRASQSVDNQFAWYQQKPGQAPRLLIYDASRRAPGIPDRFSGSGSGTDFTLTISSLEPEDFAIYYCQHRYTWLYTFGQGTRLEIK
notes: also called anti-C-terminal domain antibody
B12: NI-302.33C11 (antibody, V domains shown)
VH: EVQLVESGGGVVQPGNSLRLSCAASGFRFSDFGMHWVRQAPGKGLEWLALIWYDGGYKYYADSVKGRFTISRDNSKNTMFLQMNSLRAEDTAVYYCATHLEYCSRTTCYLGHWGQGTLVTVSS
VL: DIQLTQSPSFLSASVGDTVTFTCRASQGISDYLAWFQQKPGIAPKLLIYAASTLQTGVPSRFSGSGSGTEFTLTIRSLQSEDFGTYYCQQLKTYPYTFGQGTKVEIK
notes: also called anti-polyP domain antibody
B13: NI-302.22H9 (antibody, V domains shown)
VH: EVQLVESGGGLVHPWGSLRVSCAASGFSVSNYAITWVRQAPGKGLEYISVIYRDGRTYYGDSVRGRFTISRDDSKNTIYLQMNSLRFEDTAVYYCARAHGQYYYGVDVWGQGTTVTVSS
VL: DVVMTQSPLSLSVSPGEPASISCRSSQSLLHSNGYNYLDWYRQKPGQSPQLLIYLNSNRASGVPDRFSGSGSGTEFTLTISRVEAEDVGVYYCMQSLQTFTFGGGTKVEIK
B14: NI-302.37C12 (antibody, V domains shown)
VH: EVQLVESGGGLVQPGGSLRLSCVASALTVTNSQMTWVRRAPGRGLEWVSVIYTSGSAYYADSVKGRFTISRDNSKNTVFLQMNSLRVEDTAVYYCAKGPSAYYYGLDLWGQGTTVTVSS
VL: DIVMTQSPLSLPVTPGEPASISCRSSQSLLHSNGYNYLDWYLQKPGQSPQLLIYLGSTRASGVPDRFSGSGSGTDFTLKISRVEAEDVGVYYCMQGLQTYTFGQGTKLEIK
B15: NI-302.8M1 (antibody, V domains shown)
VH: EVQLVQSGAEVKKPGASVKVSCKASGYTFTIYYMHWVRQAPGQGLEWMGGISPSGAHTMYAQNFQGRVTVTRDTSTSTVYMELSSLRSEDTAVYYCARGSTVTNYRPFDYWGQGTLVTVSS
VL: DIQMTQSPSSLSASVGDRVTITCRASQDISNYLAWYQQKPGKVPKLLIFAASTLQSGVPSRFGGSGSGTDFTLTISSLQPEDVATYYCQNYNSGPPPFGPGTKVDIK
B16: NI-302.44D7 (antibody, human IgG1, V domains shown)
VH: EVQLVQSGGGLVQPGGSLRLSCAASGFTFSSYAMSWVRQAPGKGLEWVSGIGYSDTSTYYADSVKGRFTVSRDISKNTLYLQMNSLRAEDTAVYYCAKGTRDYYGMDVWGQGTMVTVSS
VL: QTVVTQEPSFSVSPGGTVTLTCGLSSGSVSTSYYPSWYQQTPGRAPRTLIYSTNTRSSGVPDRFSGSILGNKAALTITGAQADDESDYYCVLFMGSGIGVFGGGTRLTVL
notes: as for B1
B17: NI-302.15F9 (antibody, human IgG1, V domains shown)
VH: EVQLVESGGGLVTPGGSLRLSCEASGFLFKNSSMNWVRQTPGKGLEWVSSIDTSATNYKYYADSVKGRFTISRDDATNSLYLQMNSLRADDTATYYCARGYYTPRDFDYWGQGTLVTVSS
VL: DVVMTQSPQTLSVSLGQAASISCRSSQSLLYRDNNTYLNWFHQRPGQSPRRLIYRASDRDSGVPDRFSGGGSGTDFTLKISGVEAEDVGTYYCMQGTHWPRTFGQGTKVEIK
notes: as for B1

What follows are binders tested against T1, HD21 (huntingtin exon 1 protein with 21 polyQ repeats after cleavage of the GST tag; aggregation reaction) (human, UniProt P42858 1-88) (assay: direct ELISA (Example 25, FIG. 20)).
T1 construct: domain: Exon1; Residues left by the protease site are not described; Aggregated preparation or time-resolved aggregation reaction; also called aggregated HD21; HttExon1Q21
T1 sequence (P42858 1-88 limits assumed, change not shown): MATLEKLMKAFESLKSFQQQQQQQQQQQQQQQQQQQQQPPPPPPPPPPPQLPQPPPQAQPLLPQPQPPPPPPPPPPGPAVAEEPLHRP

Question: Does B1 bind?
Answer: binds

What follows are binders tested against T1, HD21 (huntingtin exon 1 protein with 21 …) (assay: direct ELISA, antigen coated at 5 ug/ml).

Question: Does B2 bind?
Answer: binds

Question: Does B3 bind?
Answer: binds

Question: Does B4 bind?
Answer: binds

Question: Does B5 bind?
Answer: binds

What follows are binders tested against T2, GST-HttExon1Q21 (recombinant huntingtin exon 1 protein with 21 polyQ repeats fused to an N-terminal GST tag) (human, UniProt P08515 1-218 = GST; P42858 1-88) (assay: direct ELISA, antigen coated at 5 ug/ml).
T2 construct: Expressed in E. coli BL21; also called GST-HD21; soluble GST-HD21; not shown: PreScission cleavage site
T2 sequence (P08515 1-218, tags or fused parts left off): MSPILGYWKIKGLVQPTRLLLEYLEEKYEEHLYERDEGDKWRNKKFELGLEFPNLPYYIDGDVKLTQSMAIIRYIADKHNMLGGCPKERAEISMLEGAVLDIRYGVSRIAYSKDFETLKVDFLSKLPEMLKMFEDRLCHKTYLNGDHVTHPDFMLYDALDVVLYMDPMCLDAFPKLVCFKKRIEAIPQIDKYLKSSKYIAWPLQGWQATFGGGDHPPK

Question: Does B6 bind?
Answer: binds

Question: Does B2 bind?
Answer: binds

Question: Does B7 bind?
Answer: binds

Question: Does B8 bind?
Answer: binds

Question: Does B4 bind?
Answer: binds

Question: Does B9 bind?
Answer: binds

Question: Does B10 bind?
Answer: binds

Question: Does B11 bind?
Answer: binds

Question: B12 was tested. Which EC50 did it give?
Answer: ~0.1 nM

Question: Does B13 bind?
Answer: binds

Question: Does B14 bind?
Answer: binds

Question: Does B15 bind?
Answer: binds

Question: Does B5 bind?
Answer: binds

What follows are binders tested against T3, HD35 (huntingtin exon 1 protein with 35 polyQ repeats after cleavage of the GST tag; aggregation reaction) (human, UniProt P42858 1-88) (assay: filter retardation assay (SDS stable aggregates)).
T3 construct: domain: Exon1; Residues left by the protease site are not described; Time-resolved aggregation reaction; also called HD35 aggregates; HttExon1Q35
T3 sequence (P42858 other isoform, or with tags, fused parts or gaps limits assumed): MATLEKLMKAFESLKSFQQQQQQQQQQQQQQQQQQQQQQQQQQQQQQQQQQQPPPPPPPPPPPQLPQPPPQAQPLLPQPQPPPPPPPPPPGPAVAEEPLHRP

Question: Does B16 bind?
Answer: no binding (tested: 0.2 µg/ml primary antibody)

Question: Does B14 bind?
Answer: no binding (tested: 0.2 µg/ml primary antibody)

These binders were tested against T2, GST-HttExon1Q21 (recombinant huntingtin …) (assay: direct ELISA).

Question: Does B3 bind?
Answer: binds

What follows are binders tested against T4, HD49 (huntingtin exon 1 protein with 49 polyQ repeats after cleavage of the GST tag; aggregation reaction) (human, UniProt P42858 1-88) (assay: direct ELISA; reference HD21; aggregated or GST-fused form not said).
T4 construct: domain: Exon1; Residues left by the protease site are not described; Aggregated preparation or time-resolved aggregation reaction; also called aggregated HD49; aggregated HTT Exon1 HD49
T4 sequence (P42858 other isoform, or with tags, fused parts or gaps limits assumed): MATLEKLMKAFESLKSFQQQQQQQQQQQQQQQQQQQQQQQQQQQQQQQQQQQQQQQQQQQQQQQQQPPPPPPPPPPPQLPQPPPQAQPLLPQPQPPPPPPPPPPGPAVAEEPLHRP

Question: For B17, which “fold preference of HD49 vs. HD21” value is on record?
Answer: ~5 fold
